{
  "source": "patent WO2003050283A2",
  "binders": {"B1": {"name": "iMab100 (designed binder, not shown: small tags and cut ends)", "chain": "NVKLVEKGGNFVENDDDLKLTCRAEGYTIGPYCMGWFRQAPNDDSTNVATINMGGGITYYGDSVKERFDIRRDNASNTVTLSMDDLQPEDSAEYNCAGDSTIYASYYECGHGLSTGGYGYDSHYRGQGTDVTVSS"}, "B2": {"name": "iMab1200 (designed binder)", "chain": "HGLPMEKRGNFIVGQNCSLTCPASGYTIGPQCVFNCYFNSALAFSTENMGEWTLDMVFSDAGIYTMCAADSTIYASYYECGHGLSTGGYGYNPVSLGSFWDSP"}},
  "key": {"[1]": {"target": "chicken lysozyme (chicken) (UniProt P00698)", "sequence (P00698 19-147 limits assumed)": "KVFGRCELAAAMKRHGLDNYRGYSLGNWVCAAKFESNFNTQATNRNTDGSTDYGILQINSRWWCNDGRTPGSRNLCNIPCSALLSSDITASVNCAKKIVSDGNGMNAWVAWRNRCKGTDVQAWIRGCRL", "test": "ELISA, lysozyme (100 ug/ml) coated well blocked with ELK; ~50 ng iMab per well, urea-purified; anti-VSV-HRP"}, "[2]": {"target": "chicken lysozyme (chicken) (UniProt P00698)", "test": "ELISA, lysozyme (100 ug/ml) coated well blocked with ELK; ~50 ng iMab per well, purified by heat (60 C) solubilisation; anti-VSV-HRP"}, "[3]": {"target": "chicken lysozyme (chicken) (UniProt P00698)"}, "[4]": {"target": "ELK (3% skim milk powder solution)", "test": "ELISA, ELK-coated control well; ~5 ng iMab per well, urea-purified; anti-VSV-HRP"}},
  "note": "Like-named read-outs stand apart in the source and are kept apart here.",
  "data": [
    {"binder": "B1", "values": [
      {"measurement": "Absorbtion (450 nm) (absorbance (450 nm))", "setting": "[1]", "value": 0.494},
      {"measurement": "Absorbtion (450 nm) (absorbance (450 nm))", "setting": "[2]", "value": 0.369}
    ]},
    {"binder": "B2", "values": [
      {"measurement": "Absorbtion (450 nm) (absorbance (450 nm))", "setting": "[3]", "value": 0.061},
      {"measurement": "Absorbtion (450 nm) (absorbance (450 nm))", "setting": "[4]", "value": 0.04}
    ]}
  ]
}
